Drawing on patent publication US20240294638A1, this text covers EC50 (ug/mL) of induced NK cell cytotoxicity, median (n = 6), IC50 (read off the curve) and EC50 (read off the curve) for two substances.

For assay [1], the target named is NKG2A on primary human NK cells (human) (UniProt P26715). Nature of the assay: cell-based or functional assay.
Assay [2] concerns the target human NKG2A and human CD94 expressed on transiently transfected CHO-S cells (human) (UniProt Q13241). Nature of the assay: blocking of PE-conjugated HLA-E pentamer binding to transiently transfected CHO-S cells, flow cytometry (percentage binding) [panel A hNKG2A]. (A flow cytometer gives signals particle by particle.)
The target of assay [3] is cynomolgus NKG2A and cynomolgus CD94 expressed on transiently transfected CHO-S cells (cynomolgus) (UniProt Q68VD2). As to the kind of experiment: blocking of PE-conjugated HLA-E pentamer binding to transiently transfected CHO-S cells, flow cytometry (percentage binding) [panel B cNKG2A].
Assay [4] deals with cynomolgus NKG2C and cynomolgus CD94 expressed on transiently transfected CHO-S cells (cynomolgus). As to the kind of experiment: blocking of PE-conjugated HLA-E pentamer binding to transiently transfected CHO-S cells, flow cytometry (percentage binding) [cont.), panel D cNKG2C].
A further assay has as its target I168S (Homo sapiens). Nature of the assay: flow cytometry, CHO-S cells transiently transfected with NKG2A variant and CD94, AF647 goat anti-human IgG secondary (MFI) [cont.), panel monalizumab analogue (IgG4].
In assay [5] the target is human NKG2A M189I / human CD94 heterodimer on CHO-S cells (human) (UniProt Q13241). Described as above.
Chain of human NKG2A M189I / human CD94 heterodimer on CHO-S cells (human) (chain, as listed by the source M189I M189I, chain 1 of 2): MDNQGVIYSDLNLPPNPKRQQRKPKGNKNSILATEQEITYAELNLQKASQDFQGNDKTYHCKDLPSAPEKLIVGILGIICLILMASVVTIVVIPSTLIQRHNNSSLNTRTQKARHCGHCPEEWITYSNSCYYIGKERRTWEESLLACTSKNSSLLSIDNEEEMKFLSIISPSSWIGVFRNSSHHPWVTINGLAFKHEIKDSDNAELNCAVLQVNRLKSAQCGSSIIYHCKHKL
Chain of human NKG2A M189I / human CD94 heterodimer on CHO-S cells (human) (Q13241 whole entry, chain 2 of 2): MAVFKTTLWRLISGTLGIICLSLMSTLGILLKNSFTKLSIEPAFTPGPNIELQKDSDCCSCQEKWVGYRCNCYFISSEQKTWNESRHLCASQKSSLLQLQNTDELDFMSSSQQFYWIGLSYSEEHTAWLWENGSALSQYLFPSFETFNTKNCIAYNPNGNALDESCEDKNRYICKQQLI
Assay [6] has as its target human NKG2A S167A+I168S+S170L / human CD94 heterodimer on CHO-S cells (human) (UniProt Q13241). The assay is described as above.
Assay [7] addresses human NKG2A S170L / human CD94 heterodimer on CHO-S cells (human) (UniProt Q13241). The assay is described as above.
Assay [8] deals with human NKG2A and human CD94 expressed on transiently transfected CHO-S cells (human) (UniProt Q13241). The assay is described as above.
Chain of human NKG2A and human CD94 expressed on transiently transfected CHO-S cells (human) (chain, as listed by the source, chain 1 of 2): as the sequence (chain, as listed by the source M189I M189I, chain 1 of 2) above, with I189M counted along it
Chain of human NKG2A and human CD94 expressed on transiently transfected CHO-S cells (human) (Q13241 whole entry, chain 2 of 2): as the sequence (Q13241 whole entry, chain 2 of 2) above
Assay [9] has as its target cynomolgus NKG2A and cynomolgus CD94 expressed on transiently transfected CHO-S cells (cynomolgus) (UniProt Q68VD2). Nature of the assay: flow cytometry, transiently transfected CHO-S cells, AF647 goat anti-human IgG secondary (MFI) [cont.), panel monalizumab analogue (IgG1-LALA].
Assay [10] concerns the target cynomolgus NKG2C and cynomolgus CD94 expressed on transiently transfected CHO-S cells (cynomolgus). The assay is described as above.
Assay [11] addresses human NKG2A and human CD94 expressed on transiently transfected CHO-S cells (human) (UniProt Q13241). The assay is described as above.

Chain of human NKG2A S170L / human CD94 heterodimer on CHO-S cells (human) (chain, as listed by the source S170L S170L, chain 1 of 2): as the sequence (chain, as listed by the source M189I M189I, chain 1 of 2) above, with S170L, I189M counted along it
Chain of human NKG2A S170L / human CD94 heterodimer on CHO-S cells (human) (Q13241 whole entry, chain 2 of 2): as the sequence (Q13241 whole entry, chain 2 of 2) above
Chain of NKG2A on primary human NK cells (human) (P26715 whole entry): as the sequence (chain, as listed by the source M189I M189I, chain 1 of 2) above, with I189M counted along it
Chain of I168S (Homo sapiens) (P26715 whole entry I168S): as the sequence (chain, as listed by the source M189I M189I, chain 1 of 2) above, with I168S, I189M counted along it
Chain of human NKG2A S167A+I168S+S170L / human CD94 heterodimer on CHO-S cells (human) (chain, as listed by the source S167A I168S S170L S167A I168S S170L, chain 1 of 2): as the sequence (chain, as listed by the source M189I M189I, chain 1 of 2) above, with S167A, I168S, S170L, I189M counted along it
Chain of human NKG2A S167A+I168S+S170L / human CD94 heterodimer on CHO-S cells (human) (Q13241 whole entry, chain 2 of 2): as the sequence (Q13241 whole entry, chain 2 of 2) above

As usually defined, the EC50 (read off the curve) is the concentration that produces a half-maximal response. Read a low EC50 (read off the curve) as a more potent agent. Regarding “Monalizumab Analogue (IgG4-S228P) (antibody)”, in assay [1], the EC50 (ug/mL) of induced NK cell cytotoxicity, median (n = 6) came out at 0.89 µg/mL. Besides, the IC50 (read off the curve) in assay [2] was found to be 200 ng/mL; in [3], 500 ng/mL; in assay [4], 800 ng/mL. The 50% effective concentration (EC50 (read off the curve)) with I168S (Homo sapiens) is 2 ng/mL; in assay [5] it was 2 ng/mL; in assay [6], 3 ng/mL; in assay [7] it was 2 ng/mL; in assay [8], 2 ng/mL.
As for “monalizumab analogue (IgG1-LALA) (antibody)”, the figures for the half-maximal effective concentration (EC50 (read off the curve)) in [9], in [10] and in assay [11] were 10 ng/mL, 20 ng/mL and 8 ng/mL, respectively.
